Source: patent US20240368668A1, “SUBSTRATES AND BIOMARKERS OF ADAMTS7” (The Broad Institute, Inc., priority 2021, published 2024)
Square brackets hold non-standard residues; d marks the D form. Ends that are not written are not given here.

The substances below were run against T1, mouse ADAMTS7 (Mus musculus, UniProt Q68SA9) (assay: TMT10 TAILS N-terminomics, HUVEC experiment (process replicates, trypsin/AspN digest)). Settings: HUVEC TAILS HC; log fold change of N-terminal peptide, Ad-mADAMTS7 WT over Luc.
T1 construct: Full-length mouse Adamts7 1-1857 (Uniprot Q68SA9, WT or E373Q catalytic mutant); expressed in transfected cells; host or cells: Human Coronary Artery Smooth Muscle Cells (HCA-SMC, Lonza), adenovirus 50 MOI
T1 sequence (Q68SA9 221-1657): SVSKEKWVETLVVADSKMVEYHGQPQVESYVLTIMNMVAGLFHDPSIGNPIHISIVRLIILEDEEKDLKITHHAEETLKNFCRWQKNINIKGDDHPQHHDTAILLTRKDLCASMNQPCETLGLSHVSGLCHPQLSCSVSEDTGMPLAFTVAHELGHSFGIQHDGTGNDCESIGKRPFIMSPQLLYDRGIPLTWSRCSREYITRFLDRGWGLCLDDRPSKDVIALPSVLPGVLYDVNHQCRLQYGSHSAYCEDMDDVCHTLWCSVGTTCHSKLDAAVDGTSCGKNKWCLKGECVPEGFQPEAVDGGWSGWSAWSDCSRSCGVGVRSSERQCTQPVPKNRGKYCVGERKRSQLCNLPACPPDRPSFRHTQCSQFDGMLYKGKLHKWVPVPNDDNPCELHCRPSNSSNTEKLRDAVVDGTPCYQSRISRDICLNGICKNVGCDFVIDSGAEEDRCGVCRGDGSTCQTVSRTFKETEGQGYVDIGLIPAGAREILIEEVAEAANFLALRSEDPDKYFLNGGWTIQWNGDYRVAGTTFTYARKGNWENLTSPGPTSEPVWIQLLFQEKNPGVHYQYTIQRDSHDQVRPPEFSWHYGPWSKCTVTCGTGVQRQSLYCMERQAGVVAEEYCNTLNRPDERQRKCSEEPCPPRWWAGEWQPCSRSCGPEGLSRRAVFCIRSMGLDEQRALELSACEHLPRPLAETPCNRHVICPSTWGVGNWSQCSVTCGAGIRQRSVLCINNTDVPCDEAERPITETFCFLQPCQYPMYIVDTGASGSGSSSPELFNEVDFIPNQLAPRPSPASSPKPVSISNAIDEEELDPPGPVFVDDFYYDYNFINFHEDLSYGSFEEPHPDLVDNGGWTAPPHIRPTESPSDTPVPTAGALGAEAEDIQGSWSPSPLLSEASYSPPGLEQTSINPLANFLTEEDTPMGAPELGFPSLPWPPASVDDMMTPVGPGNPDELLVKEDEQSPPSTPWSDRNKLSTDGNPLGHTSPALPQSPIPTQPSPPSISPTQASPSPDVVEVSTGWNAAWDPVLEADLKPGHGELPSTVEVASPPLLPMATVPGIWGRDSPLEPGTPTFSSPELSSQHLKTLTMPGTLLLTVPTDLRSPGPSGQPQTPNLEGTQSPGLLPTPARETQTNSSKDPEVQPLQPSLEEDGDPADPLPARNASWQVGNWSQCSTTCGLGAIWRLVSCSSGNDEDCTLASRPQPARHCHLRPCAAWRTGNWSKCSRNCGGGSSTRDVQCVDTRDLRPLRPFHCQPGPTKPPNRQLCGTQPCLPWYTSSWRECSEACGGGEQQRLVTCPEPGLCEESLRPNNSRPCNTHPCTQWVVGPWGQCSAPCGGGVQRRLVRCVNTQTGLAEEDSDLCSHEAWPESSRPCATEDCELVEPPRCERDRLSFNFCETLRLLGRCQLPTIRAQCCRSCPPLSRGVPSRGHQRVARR
Assay type: cell-based, human
Summary of the method: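 Full-length mouse ADAMTS7 (WT or E373Q mutant, C-terminal 3xFLAG) or luciferase was transduced via adenovirus, 50 MOI, into HCA-SMC (SMC1, SMC2) or HUVEC. SMC1: pooled media, technical triplicates 400 ug; SMC2: process triplicates 300 ug; HUVEC: process triplicates 200 ug, bFGF2 10 ng/ml.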
Substance “FN1_1780 (LQGLRPGSEYTVSVVALH; listed as Homo sapiens)” has a logFC.mWT.over.Luc of 1.80.
“FSTL1_290 (LQKHQETA; listed as Homo sapiens)” showed a logFC.mWT.over.Luc of 2.34.
“EFEMP1_125_ (VAGPEMQTGR; listed as Homo sapiens)” gave a logFC.mWT.over.Luc of 2.34.
With “ERAP2_718 (ISENLKR; listed as Homo sapiens)” the logFC.mWT.over.Luc was 5.05.
For “LOX_125 (FQAGYSTSR; listed as Homo sapiens)”, the logFC.mWT.over.Luc was 3.82.
Substance “FN1_1144 (TPGVEYVYTIQVLR; listed as Homo sapiens)” has a logFC.mWT.over.Luc of 1.43.
Substance “FN1_1805 (LIGTQSTAIPAPT; listed as Homo sapiens)” has a logFC.mWT.over.Luc of 1.47.
“FN1_607 (SSSGPVEVFIT; listed as Homo sapiens)” gave a logFC.mWT.over.Luc of 2.31.
For “FN1_34 ([code q]QMVQPQSPVAVSQSKPGCY; not fully specified (residue 3); listed as Homo sapiens)”, the logFC.mWT.over.Luc was 1.37.
With “EWSR1_87 (YSQPVQGYGTGAY; listed as Homo sapiens)” the logFC.mWT.over.Luc was 1.10.
“FN1_35 ([code q]MVQPQSPVAVSQSKPGCY; not fully specified (residue 2); listed as Homo sapiens)” showed a logFC.mWT.over.Luc of 2.31.
“FN1_293 (VYQPQPHPQPPPYGHCVT; listed as Homo sapiens)” gave a logFC.mWT.over.Luc of 0.96.
With “ECM1_108 (QEAVPLQK; listed as Homo sapiens)” the logFC.mWT.over.Luc was 2.21.
With “FN1_2113 (FVTHPGY; listed as Homo sapiens)” the logFC.mWT.over.Luc was 1.05.
